Experimental data: patent US20190270815A1 (WUXI BIOLOGICS IRELAND, published 2019)
Numbering of substitutions follows the chain as printed. Each block holds one binder with its values, some of them ahead of it.

Key:
[1] = target: T1, murine PD-1 (Sino biological) (murine, UniProt Q02242 25-167, limits assumed); experiment: ELISA on plate-coated murine PD-1
T1 sequence (looked up): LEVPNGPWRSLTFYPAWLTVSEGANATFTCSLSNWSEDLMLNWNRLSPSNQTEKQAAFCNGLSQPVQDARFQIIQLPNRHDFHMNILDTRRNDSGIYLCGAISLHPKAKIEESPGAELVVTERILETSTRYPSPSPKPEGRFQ
Method: 3.3.1 Cross-reactivity to cynomolgus PD-1 and murine PD-1: Cross-reactivity was measured by ELISA. Plates (Nunc) were coated with cynomolgus PD-1 (Sino Biological) and murine PD-1 (Sino biological) at 1 μg/ml overnight at 4° C. After blocking and washing, […] antibodies were added to the plates and incubated at room temperature for 1 h. The plates were then washed and subsequently incubated with secondary antibody goat anti rat IgG1 HRP (Bethyl) and goat anti rat IgG2b HRP (Bethyl) for 45 min. After washing, TMB substrate was added and the interaction was stopped by 2M HCl. The absorbance at 450 nm was read using a microplate reader (Molecular Device).

[2] = target: T2, human PD-1 expressed on cells (human, UniProt Q15116 25-288); experiment: FACS on CHO-S cells expressing human PD-1
T2 construct: whole, on cells; also called PD-1 expressing CHO cell; PD-1 transfected CHO-S cells
T2 sequence (Q15116 25-288): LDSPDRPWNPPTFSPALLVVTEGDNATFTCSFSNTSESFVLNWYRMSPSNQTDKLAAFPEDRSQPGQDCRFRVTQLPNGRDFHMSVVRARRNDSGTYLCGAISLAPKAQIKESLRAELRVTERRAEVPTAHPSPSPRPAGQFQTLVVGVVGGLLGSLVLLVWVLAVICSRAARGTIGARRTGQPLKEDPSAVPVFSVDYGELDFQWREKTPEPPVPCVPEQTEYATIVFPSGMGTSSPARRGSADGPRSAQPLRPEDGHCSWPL
Method: (§1) 3.1 Binding affinity of PD-1 antibodies to cell surface PD-1 molecules tested by flow cytometry (FACS): Antibody binding affinity to cell surface PD-1 was performed by FACS analysis. CHO-S cells expressing human PD-1 were transferred in to 96-well U-bottom plates (BD) at a density of 5×10⁵ cells/ml. Tested antibodies were 1:2 serially diluted in wash buffer (1×PBS/1% BSA) and incubated with cells at 4° C. for 1 h. The secondary antibody goat anti-human IgG Fc FITC (3.0 moles FITC per mole IgG, (Jackson Immunoresearch Lab) was added and incubated at 4° C. in the dark for 1 h. The cells were then washed once and resuspended in 1×PBS/1% BSA, and analyzed by flow cytometery (BD). Fluorescence intensity will be converted to bound molecules/cell based on the quantitative beads Quantum™ MESF Kits, Bangs Laboratories, Inc.). KD was calculated using Graphpad Prism5.

[3] = target: T2, human PD-1 expressed on cells; experiment: FACS on CHO-S cells expressing human PD-1, antibody in formulation buffer
Method: as §1

[4] = target: T2, human PD-1 expressed on cells; experiment: FACS on CHO-S cells expressing human PD-1, antibody in 1xPBS pH 7.4
Method: as §1

B1: 1.7.3 hAb (antibody, V domains shown)
VH: QLQLQESGPGLVKPSETLTLTCTVSGDSISSTTYYWVWIRQPPGKGLEWIGSISYSGNTYYNPSLKSRVTISVDTSKNHFSLKLSSVAATDTALYYCARHLGYNGRYLPFDYWGQGTLVTVSS
VL: QSALTQPASVSGSPGQSITISCTGTSSDVGFYNYVSWYQQHPGKAPELMIYDVTNRPSGVSDRFSGSKSGNTASLTISGLQAEDEADYYCSSYTSISTWVFGGGTKLTVL
notes: fully human monoclonal antibody with a human constant region of IgG4 isotype
- binding result [1]: no binding (tested: 1 g/ml antibodies (so in the source))
- EC50 [2]: ~2 nM

B2: 1.103.11-v2 hAb (antibody, IgG4, V domains shown)
VH: B1 VH with G26A, N58S, I71V, H79Q, S85N
VL: B1 VL with T54S
notes: human constant region of IgG4 isotype
- EC50 [3]: ~3.12 nM
- EC50 [4]: ~2.52 nM

B5: 1.153.7 hAb (antibody, V domains shown)
VH: EVQLLESGGGLVQPGGSLRLSCAASGFTFSSHAMSWVRQAPGKGLEWVSTITGGGGSIYYADSVKGRFTISRDNSKNTLYLQMNSLRAEDTAVYYCAKNRAGEGYFDYWGQGTLVTVSS
VL: SYELTQPLSVSVALGQTARITCGGDNIGNKDVHWYQQKPGQAPVLVIYRDSNRPSGIPEGFSGSNSGNTATLTISRAQAGDEADYYCQVWDSIWVFGGGTKLTVL
notes: as for B1
- binding result [1]: no binding (tested: 1 g/ml antibodies (so in the source))
- EC50 [2]: ~2 nM

More lines, main results first:

- EC50 [2]: ~2 nM
B3: 1.49.9 hAb (antibody, V domains shown)
VH: B1 VH with T19S, D27G, T32S, V37G, N58S, H79Q, A88T, A89D, T90A, L94V
VL: B1 VL with L48V, T54S
notes: as for B1
- binding result [1]: no binding (tested: 1 g/ml antibodies (so in the source))

- EC50 [2]: ~2 nM
B4: 1.139.15 hAb (antibody, V domains shown)
VH: QLQLQESGPGLVKPSETLSLTCTVSGGSISSTTYYWGWIRQPPGKGLEWIGSISYSGTTYYNPSLKSRVTIPVDTSKNQISLKLSSVTAADTSLYYCARHLGYNSNWYPFDYWGQGTLVTVSS
VL: QSALTQPPSVSGSPGQSVTISCTGTSSDVGSYNRVSWYQQPPGTAPEVIIYEVSNRPSGVPDRFSGSKSGNTASLTISGLQAEDEADYYCSSYTSSSTWVFGGGTKLTVL
notes: as for B1
- binding result [1]: no binding (tested: 1 g/ml antibodies (so in the source))
